T1: rat C7 protein (rat)
T1 chain: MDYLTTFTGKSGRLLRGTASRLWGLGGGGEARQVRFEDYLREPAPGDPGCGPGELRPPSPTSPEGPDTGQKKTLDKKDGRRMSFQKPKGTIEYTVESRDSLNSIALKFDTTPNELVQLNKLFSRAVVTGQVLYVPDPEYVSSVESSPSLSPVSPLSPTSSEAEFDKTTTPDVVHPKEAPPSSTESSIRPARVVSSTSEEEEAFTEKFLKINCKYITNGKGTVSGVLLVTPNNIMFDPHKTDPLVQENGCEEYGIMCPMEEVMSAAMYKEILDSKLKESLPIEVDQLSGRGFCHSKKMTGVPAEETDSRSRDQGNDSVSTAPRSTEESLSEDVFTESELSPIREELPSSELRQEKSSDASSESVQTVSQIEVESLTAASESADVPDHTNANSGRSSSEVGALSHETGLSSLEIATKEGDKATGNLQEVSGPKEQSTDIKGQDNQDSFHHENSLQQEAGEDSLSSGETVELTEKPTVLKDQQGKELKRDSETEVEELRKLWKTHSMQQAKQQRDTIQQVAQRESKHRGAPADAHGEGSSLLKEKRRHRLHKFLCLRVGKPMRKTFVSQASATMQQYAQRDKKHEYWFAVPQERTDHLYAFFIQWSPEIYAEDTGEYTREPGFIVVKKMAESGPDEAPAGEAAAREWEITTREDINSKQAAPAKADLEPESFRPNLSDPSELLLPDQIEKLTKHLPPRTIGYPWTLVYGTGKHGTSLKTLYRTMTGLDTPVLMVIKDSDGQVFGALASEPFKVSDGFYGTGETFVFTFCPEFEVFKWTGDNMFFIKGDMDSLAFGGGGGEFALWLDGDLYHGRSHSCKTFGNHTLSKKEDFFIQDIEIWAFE


Legend:
[1] = target: T1, rat C7 protein; experiment: cell-based or functional assay
[2] = target: T2, human complement protein C7 (human, UniProt P10643 23-843); experiment: cell-based or functional assay
[3] = target: mouse C7 protein (mouse, UniProt D3YXF5 23-845); experiment: cell-based or functional assay
[4] = target: T1, rat C7 protein; experiment: direct ELISA, rat C7 on the well, antibody titrated
[5] = target: T2, human complement protein C7; experiment: sandwich ELISA, 2H2 coated as capture, human C7 titrated, goat anti-C7 as detection
[6] = target: T2, human complement protein C7; experiment: sandwich ELISA, 2H2 coated as capture, human C7 titrated, polyclonal anti-C7 as detection
[7] = target: T1, rat C7 protein; experiment: SPR (Biacore); antibody captured on mouse IgG capture kit (CM5 chip), C7 flowed over
Experimental: (§1) Dissociation was then measured for a further 600 seconds. The surface was regenerated between each cycle.

[8] = target: T2, human complement protein C7; experiment: as above
Experimental: as §1

[9] = target: T2, human complement protein C7; experiment: direct ELISA, C7 immobilised on the well, antibody titrated
Experimental: Wells were blocked with bovine serum albumin (BSA), washed, then incubated (1 hour at 37° C.) with test samples containing mAb (supernatants from hybridoma clones for example). Wells were washed then incubated as above with peroxidase-labelled anti-mouse immunoglobulin (Jackson Labs). Wells were washed and signals were developed with OPD (o-phenylenediamine dihydrochloride; Sigma). Colour development was stopped by adding 10% H₂SO₄ to all wells, usually within 5 minutes. The absorbance of each well was measured at 492 nm.

mouse C7 protein, sequence (D3YXF5 23-845 limits assumed): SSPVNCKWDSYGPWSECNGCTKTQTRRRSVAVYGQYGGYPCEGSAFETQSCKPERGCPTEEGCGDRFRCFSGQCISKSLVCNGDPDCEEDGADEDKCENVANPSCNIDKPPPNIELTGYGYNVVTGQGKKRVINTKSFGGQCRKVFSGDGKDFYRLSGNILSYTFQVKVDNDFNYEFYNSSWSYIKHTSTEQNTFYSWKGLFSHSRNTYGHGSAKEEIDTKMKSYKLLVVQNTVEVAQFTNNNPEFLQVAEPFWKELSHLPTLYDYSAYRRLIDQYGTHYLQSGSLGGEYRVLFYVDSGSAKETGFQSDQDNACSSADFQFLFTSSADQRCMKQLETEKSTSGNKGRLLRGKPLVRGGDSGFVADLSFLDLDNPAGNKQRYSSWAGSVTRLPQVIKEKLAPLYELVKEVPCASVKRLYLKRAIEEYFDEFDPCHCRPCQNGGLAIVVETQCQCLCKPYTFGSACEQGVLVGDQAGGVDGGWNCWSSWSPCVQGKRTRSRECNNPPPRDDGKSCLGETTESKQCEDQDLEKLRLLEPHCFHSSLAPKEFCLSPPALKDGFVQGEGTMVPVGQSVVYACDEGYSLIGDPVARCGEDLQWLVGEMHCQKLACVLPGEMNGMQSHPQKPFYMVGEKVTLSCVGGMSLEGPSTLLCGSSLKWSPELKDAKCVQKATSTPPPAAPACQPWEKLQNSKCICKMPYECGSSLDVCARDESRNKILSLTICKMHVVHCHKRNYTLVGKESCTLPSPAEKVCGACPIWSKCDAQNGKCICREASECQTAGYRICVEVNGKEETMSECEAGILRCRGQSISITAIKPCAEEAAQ
T2 sequence (P10643 other isoform, or with tags, fused parts or gaps limits assumed): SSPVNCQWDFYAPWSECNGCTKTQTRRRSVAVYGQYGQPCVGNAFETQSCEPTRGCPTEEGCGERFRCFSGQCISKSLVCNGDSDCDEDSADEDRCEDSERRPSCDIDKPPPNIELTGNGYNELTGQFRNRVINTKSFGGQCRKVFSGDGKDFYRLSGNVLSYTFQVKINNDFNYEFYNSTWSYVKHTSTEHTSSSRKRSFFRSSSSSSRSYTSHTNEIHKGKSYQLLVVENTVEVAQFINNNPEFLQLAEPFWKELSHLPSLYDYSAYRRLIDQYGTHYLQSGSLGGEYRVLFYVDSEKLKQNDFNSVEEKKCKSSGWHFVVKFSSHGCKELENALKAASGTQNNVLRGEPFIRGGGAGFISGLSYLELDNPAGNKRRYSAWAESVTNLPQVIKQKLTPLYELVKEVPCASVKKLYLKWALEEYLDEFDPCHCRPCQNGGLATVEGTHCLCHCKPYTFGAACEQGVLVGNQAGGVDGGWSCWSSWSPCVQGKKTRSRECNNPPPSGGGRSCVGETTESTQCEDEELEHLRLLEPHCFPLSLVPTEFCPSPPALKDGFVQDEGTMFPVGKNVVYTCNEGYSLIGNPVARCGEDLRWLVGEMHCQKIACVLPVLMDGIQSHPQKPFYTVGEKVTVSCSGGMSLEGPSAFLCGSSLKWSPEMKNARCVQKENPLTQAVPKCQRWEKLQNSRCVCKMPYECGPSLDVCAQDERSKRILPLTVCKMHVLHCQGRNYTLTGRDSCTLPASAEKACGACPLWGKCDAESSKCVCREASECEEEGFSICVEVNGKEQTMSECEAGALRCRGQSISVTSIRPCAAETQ

| EC50 (read off the curve) [4] [µg/mL] | EC50 (read off the curve) [5] [µg/mL] | EC50 (read off the curve) [6] [µg/mL] | Kd [7] [nM] | koff [7] [s⁻¹] | kon [7] [M⁻¹ s⁻¹] | Kd [8] [nM] | koff [8] [s⁻¹] | kon [8] [M⁻¹ s⁻¹] | EC50 (read off the curve) [9] [µg/mL] | Binder | 50% Inhibitory Dose, classical pathway haemolysis assay [1] [ng/mL] | Haemolytic Units (HU), classical pathway haemolysis assay [1] [HU] | 50% Inhibitory Dose, classical pathway haemolysis assay [2] [ng/mL] | Haemolytic Units (HU), classical pathway haemolysis assay [2] [HU] | 50% Inhibitory Dose, classical pathway haemolysis assay [3] [ng/mL] | Haemolytic Units (HU), classical pathway haemolysis assay [3] [HU] |
| --- | --- | --- | --- | --- | --- | --- | --- | --- | --- | --- | --- | --- | --- | --- | --- | --- |
| ~3 | ~0.6 | ~0.6 | – | – | – | – | – | – | – | monoclonal anti-C7 antibody 2H2 (antibody, IgG2b, V domains shown, Biotinylated in the pull-down assays; also called mAb 2H2; clone 2H2) VH: QVQLQQPGAELMKPGASVKLSCKASGYIFTSYWMHWVKQRPGRGLEWIGRIDPNSGGTNYNEKFKSKATLTVDKPSSTVYMKISSLTSEDSAVYYCAREHDYDYAMDYWGQGTSVTVSS VL: DIVMTQAAPSVPVTPGESVSISCRSSKSLLHSNGNTYLYWFLQRPGQSPQLLIYRMSNLASGVPDRFSGSGSGTAFTLRISRVEAEDVGVYYCMQHLEYPFTFGSGTKLEIK | 33.9 | 265 | 9980 | 1 | 3720 | 2.7 |
| – | – | – | 81.7 | 0.00057 | 6980 | 55.5 | 0.0015 | 26300 | – | monoclonal anti-C7 antibody 73D1 (antibody, IgG2a, V domains shown, also called mAb 73D1; antibody from hybridoma ECACC 19080601) VH: EVQLQQSGPELVKPGASVKMSCKASGYTFTDYNMHWVKQSHGKSLEWIGYINPNNGGPSYNQNFKGKATLTVNKSSSTAYMELRSLTSEDSAVYYCACGNYPDYWGQGTTLTVSS VL: DIQMTQSPASLSASVGETVTITCRASGNIHNYLAWYQQKQGKSPQLLVYNAKTLADGVPSRFSGSGSGTQYSLKINSLQPEDFGSYYCQHFWSTPLTFGAGTKLELK | 506 | 19.8 | 582 | 17.2 | 720 | 13.9 |
| – | – | – | – | – | – | 1.02 | 6.94e-05 | 68300 | ~0.01 | monoclonal anti-C7 antibody 17E7 (antibody, IgG2a, V domains shown, also called mAb 17E7; antibody from hybridoma ECACC 19041601) VH: EVQLQQSGTVLARPGASVKMSCKTSGYSFTTYWMHWVKQRPGQGLEWIGAIYPGNSDTYYSQKFKDKAKLTAVTSASTAYMELSSLTNEDSAVYYCTRSGGYDVGGLDYWGQGTTLTVSS VL: DIVMTQSPATLSVTPGDGVSLSCRASQSISDYLHWYQQKSHESPRLLIKFASQSISGIPSRFSGSGSGSDFTLSINSVEPEDVGMYYCQNGHSFPFTFGSGTKLELK | – | – | 182 | 55.1 | – | – |

Reference: patent publication US20220380444A1 (UNIVERSITY COLLEGE CARDIFF CONSULTANTS, published 2022)
